Laboratory results as given in paper PMC11480844.

B1: H2-Kb / B7 (parent)
chain 1: GQQVQQSPTSLVLQEGENAELQCNFSTSLNSMQWFYQRPGGSLVSVFYNPSGTKQSGRLTSTTVIKERRSSLHISSSQITDSGTYLCAMERDMGYKLTFGTGTSLLVDP
chain 2: EAAVTQSPRNKVAVTGGKVTLSCNQTNNHNNMYWYRQDTGHGLRLIHYSYGAGSTEKGDIPDGYKASRPSQENFSLILELATPSQTSVYFCASGDPGDQDTQYFGPGTRLLVL
chain 3: not shown
chain 4: IQKTPQIQVYSRHPPENGKPNILNCYVTQFHPPHIEIQMLKNGKKIPKVEMSDMSFSKDWSFYILAHTEFTPTETDTYACRVKHDSMAEPKTVYWDRDM
chain 5: SIINFEKL
B2: H2-Kb / G6 (parent)
chain 1: AQSVTQPDARVTVSEGASLQLRCKYSYFGTPYLFWYVQYPRQGLQLLLKYYPGDPVVQGVNGFEAEFSKSNSSFHLRKASVHWSDWAVYFCAVTPGGSNAKLTFGKGTKLSVKS
chain 2: NSGVVQSPRYIIKGKGERSILKCIPISGHLSVAWYQQTQGQELKFFIQHYDKMERDKGNLPSRFSVQQFDDYHSEMNMSALELEDSAVYFCASSRQGGDNNQAPLFGEGTRLSVL
chain 3: not shown
chain 4: B1 chain 4
chain 5: SIINFEKL

Variants of: B1
Experiment: % of reporter cells activated (NFAT-GFP), raw
Settings: with B7; scale: % of reporter cells activated
Further: test concentration or dose not given here.

Ratio to parent of substitutions, site by site:
chain 5 E6: A 1.17; C 1.46; K 1.32; D 1.43; F 1.52; Q 0.754; S 1.38; P 1.25; H 1.65; I 1.14; M 0.985; G 1.45; R 1.46; N 1.2; L 1

Variants of: B2
Experiment: % of reporter cells activated (NFAT-GFP), raw
Settings: with G6; scale: % of reporter cells activated

Ratio to parent: each site, then its substitutions
chain 5 K7: T 0.16; D 0.202; S 0.963; N 0.412; Y 0.235; V 0.235; P 0.346; A 1.4; C 0.272; G 6.68; W 0.963; R 14.4; H 0.292; I 0.358; M 0.379; F 0.189; E 0.276; Q 0.267; L 0.259
chain 5 I3: C 0.292; D 0.239; T 0.284; M 0.465; H 0.288; W 0.276; S 0.181; R 0.109; P 0.206; Y 0.272; K 0.276; E 0.395; A 0.333; G 0.226; F 0.523; L 0.926; Q 0.193; V 1.18; N 0.181
chain 5 I2: Q 0.255; K 0.551; H 0.259; S 0.115; A 0.305; L 0.247; E 0.453; Y 0.284; R 0.16; F 0.226; T 0.305; M 0.214; P 0.329; N 0.321; V 0.292; G 0.288; C 0.239; W 0.185; D 0.412
chain 5 F5: G 0.198; M 1.34; I 0.263; H 0.395; Y 0.576; D 0.313; V 0.116; R 0.247; S 0.362; Q 2.04; L 0.959; A 0.383; W 0.263; P 0.272; K 0.284; T 0.177; N 0.3; E 0.424; C 0.609
chain 5 L8: Y 2.09; D 0.152; E 0.173; C 0.251; K 0.292; Q 0.165; H 7.85; G 0.457; A 0.206; S 0.086; F 0.218; V 0.56; W 1.92; P 0.206; R 0.617; I 0.819; M 0.267; N 0.148; T 0.354
chain 5 S1: W 0.362; E 0.239; R 1.64; N 0.239; F 0.449; Q 0.42; Y 0.156; D 0.395; H 0.218; C 0.502; V 1.09; G 0.235; T 0.222; K 2.47; I 0.909; L 3.02; M 0.284; A 0.65; P 1.48
chain 5 N4: W 0.148; R 0.255; D 0.267; M 0.173; F 0.202; L 0.284; P 0.198; I 0.272; A 0.251; T 0.235; G 0.239; Y 0.14; S 0.193; Q 0.128; E 0.177; V 0.193; C 0.177; H 0.276; K 0.42
chain 5 E6: H 0.494; L 0.193; K 0.226; G 0.506; D 2.75; A 0.724; F 0.914; P 0.189; Y 0.778; C 0.21; N 0.63; V 0.222; S 0.428; M 0.551; R 0.259; T 0.362; W 7.22; I 0.321; Q 0.292
